Test results taken from publication PMC7207076 (Biochemistry, 2020).
Non-standard residues stand in square brackets, D forms with d. No end group written: not given here. Lys(Me3) = C[N+](C)(C)CCCC[C@H](N)C(=O)O

Experiments:
KDM5A1–797 [1] = molecular target: T1, KDM5A1–797 (Homo sapiens, UniProt P29375); format: biochemical; details: for KDM5A1–797 activity normalized to the 18mer WT peptide reaction (100%): H3K4me3 basic patch mutant/deletion peptides
T1 sequence (P29375 1-797): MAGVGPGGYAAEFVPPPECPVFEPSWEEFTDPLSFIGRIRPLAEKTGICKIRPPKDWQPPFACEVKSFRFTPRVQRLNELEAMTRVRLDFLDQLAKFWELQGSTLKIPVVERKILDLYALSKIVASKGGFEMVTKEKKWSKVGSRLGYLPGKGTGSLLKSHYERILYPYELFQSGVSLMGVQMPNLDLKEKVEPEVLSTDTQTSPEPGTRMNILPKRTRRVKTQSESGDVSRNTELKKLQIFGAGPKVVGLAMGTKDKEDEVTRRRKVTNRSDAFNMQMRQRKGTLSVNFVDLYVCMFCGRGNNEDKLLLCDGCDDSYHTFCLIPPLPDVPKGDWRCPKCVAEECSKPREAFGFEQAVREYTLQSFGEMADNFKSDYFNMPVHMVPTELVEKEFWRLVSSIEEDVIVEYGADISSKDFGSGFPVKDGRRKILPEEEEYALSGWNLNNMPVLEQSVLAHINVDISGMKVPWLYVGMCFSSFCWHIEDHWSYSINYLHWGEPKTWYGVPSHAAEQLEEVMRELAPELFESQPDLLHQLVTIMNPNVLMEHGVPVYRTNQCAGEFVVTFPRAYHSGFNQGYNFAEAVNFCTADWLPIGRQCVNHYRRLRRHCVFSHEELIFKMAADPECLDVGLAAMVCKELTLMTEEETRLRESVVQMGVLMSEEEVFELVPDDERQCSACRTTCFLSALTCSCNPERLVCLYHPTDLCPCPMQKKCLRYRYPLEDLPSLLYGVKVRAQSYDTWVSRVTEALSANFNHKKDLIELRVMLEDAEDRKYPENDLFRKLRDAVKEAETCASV

KDM5A1–797 [2] = molecular target: T1, KDM5A1–797; format: biochemical; details: for fold increase of KMapp compared to the 18mer WT peptide: H3K4me3 basic patch (K14-K18) deletion/mutant/acetylated peptides; for kcat: 21mer H3K4me3 peptide substrates, saturating (20 μM) effector peptide (unmodified H3 10mer, aa 1–10), means ± SEM of two independent experiments, SEM; for fold increase of KMapp relative to 21mer WT peptide: 21mer H3K4me3 peptides, PHD1 domain saturated with effector peptide

Row | Substance | kcat (KDM5A1–797 [2]) | fold increase of KMapp relative to 21mer WT peptide (KDM5A1–797 [2]) | further results
1 | 13mer: 13mer H3K4me3 peptide lacking the K14-K18 basic patch (ARTKQTARKSTGG; K4me3; UniProt P68431 2-14, looked up, fragment) | – | – | KDM5A1–797 activity normalized to the 18mer WT peptide reaction (100%) (KDM5A1–797 [1]; two independent experiments): 28%−35%; fold increase of KMapp compared to the 18mer WT peptide (KDM5A1–797 [2]): 8 fold
2 | 18mer-K14A/R17A/K18A: 18mer H3K4me3 peptide, K14A/R17A/K18A triple mutant (ART[Lys(Me3)]QTARKSTGGAAPAA; UniProt P68431 2-19, looked up, variant K14A R17A K18A) | – | – | KDM5A1–797 activity normalized to the 18mer WT peptide reaction (100%) (KDM5A1–797 [1]; two independent experiments): 28%−35%; fold increase of KMapp compared to the 18mer WT peptide (KDM5A1–797 [2]): 8 fold
3 | H3K18me3 (aa 12—32): H3 peptide aa 12—32 trimethylated at K18 | – | – | demethylation of H3K18me3 peptide by KDM5A1—797 (KDM5A1–797 [1]; peptide incubated with KDM5A1—797 (Figure S3)): no demethylation was detected
4 | K9A: 21mer H3K4me3 peptide with K9A mutation | 0.061 ± 0.002 s⁻¹ | – | –
5 | Q5A: 21mer H3K4me3 peptide with Q5A mutation | 0.056 ± 0.003 s⁻¹ | > 30 fold | KDM5A1–797 activity normalized to the 21mer H3K4me3 WT peptide reaction (100%) (KDM5A1–797 [1]; 21mer H3K4me3 alanine mutant peptides, two independent experiments): ~ 20%
6 | R2A: 21mer H3K4me3 peptide with R2A mutation | 0.069 ± 0.002 s⁻¹ | ~ 12 fold | fold rescue in demethylation in the presence of the effector peptide (KDM5A1–797 [1]; 20 μM effector (unmodified 10mer H3 peptide), 21mer H3K4me3 mutant peptide): ~ 3 fold
7 | R8A: 21mer H3K4me3 peptide with R8A mutation | 0.054 ± 0.002 s⁻¹ | ~ 4 fold | –
8 | T3A: 21mer H3K4me3 peptide with T3A mutation | 0.056 ± 0.001 s⁻¹ | – | –
9 | T6A: 21mer H3K4me3 peptide with T6A mutation | 0.075 ± 0.004 s⁻¹ | ~ 8 fold | –
10 | T6S: 21mer H3K4me3 peptide with T6 mutated to serine | 0.070 ± 0.002 s⁻¹ | – | –
11 | T6V: 21mer H3K4me3 peptide with T6 mutated to valine | 0.050 ± 0.003 s⁻¹ | 3 fold | –
12 | WT: H3 N-terminal 21mer (aa A1-A21) H3K4me3 wild-type peptide substrate | 0.052 ± 0.001 s⁻¹ | – | –
